Data: PMC7749050 (ACS synthetic biology, 2020)

How the values were obtained:
Assay in all cases: two-hybrid
[1] = molecular target: Rhodopseudomonas palustris BphP1 (RpBphP1), mammalian two-hybrid construct (Rhodopseudomonas palustris)
[2] = molecular target: T1, GAL4-BD-DrBphP, mammalian two-hybrid bait (Deinococcus radiodurans (strain not …, UniProt Q9RZA4))
[3] = molecular target: T1, GAL4-BD-DrBphP, mammalian two-hybrid …; remark: listed apart in the source

T1 sequence (Q9RZA4 whole entry, looked up, the tested form may be a part): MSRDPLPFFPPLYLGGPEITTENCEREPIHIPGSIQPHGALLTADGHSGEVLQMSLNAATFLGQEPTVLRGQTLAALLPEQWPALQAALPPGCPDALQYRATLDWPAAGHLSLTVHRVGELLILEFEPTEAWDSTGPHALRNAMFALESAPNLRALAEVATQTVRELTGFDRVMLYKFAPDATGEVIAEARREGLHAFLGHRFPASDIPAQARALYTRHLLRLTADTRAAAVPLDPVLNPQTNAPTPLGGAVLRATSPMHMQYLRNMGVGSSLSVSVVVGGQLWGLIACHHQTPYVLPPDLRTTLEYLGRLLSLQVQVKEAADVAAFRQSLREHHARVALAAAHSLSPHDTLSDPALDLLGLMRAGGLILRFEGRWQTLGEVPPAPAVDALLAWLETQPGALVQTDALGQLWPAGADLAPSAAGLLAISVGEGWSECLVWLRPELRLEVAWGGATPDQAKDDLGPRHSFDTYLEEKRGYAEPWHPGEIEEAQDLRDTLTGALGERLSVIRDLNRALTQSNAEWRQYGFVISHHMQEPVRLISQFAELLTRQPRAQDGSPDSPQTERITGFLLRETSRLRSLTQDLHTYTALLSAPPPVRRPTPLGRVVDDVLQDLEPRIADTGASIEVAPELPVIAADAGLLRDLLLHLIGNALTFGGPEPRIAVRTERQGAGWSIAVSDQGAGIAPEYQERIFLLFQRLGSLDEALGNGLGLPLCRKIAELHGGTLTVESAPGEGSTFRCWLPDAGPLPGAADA

In the case of “PpsR2, mammalian two-hybrid construct (natural protein)”, the fold increase of luciferase expression, 775-nm light over dark [1] is reported as 2.95 fold.

B1: LDB-14-p65, mammalian two-hybrid prey (VHH)
VHH: EVQLQASGGGFVQPGGSLRLSCAASGTTSRWESMGWFRQAPGKEREFVSAISWQNNSVPYYADSVKGRFTISRDNSKNTVYLQMNSLRAEDTATYYCAAQHNFLGHRYWGQGTQVTVSS
For B1, the “fold increase of luciferase expression, 654-nm light over dark” value [2] was ~19.1 fold and the “fold increase of GFP level, 654-nm light over dark” value [3] was ~39 fold.

B2: LDB-3-p65, mammalian two-hybrid prey (VHH)
VHH: EVQLQASGGGFVQPGGSLRLSCAASGFTWDHYIMGWFRQAPGKEREFVSAISENGDAWNYYADSVKGRFTISRDNSKNTVYLQMNSLRAEDTATYYCAIGFDVPSGRSWQGSHFWMYWGQGTQVTVSS
B2 was tested, and the “fold increase of luciferase expression, 654-nm light over dark” value [2] was ~19.5 fold and the “fold increase of GFP level, 654-nm light over dark” value [3] was ~44 fold.
